Test results from doi:10.64898/2025.12.18.695077v1.

System: O=P(O)(OC[C@@H](O)CO)OC[C@@H](O)CO
Test: purified protein
Conditions: co-substrate C22:6-CoA 100 uM, pH 7.4, 37 C, 0.05% LMNG

Which results are given for “CLN8 (FLAG-STREP-tagged, purified from human Flp-In T-REx 293 cells) (Homo sapiens)”?
Km: 570 µM; kcat: 0.8022 s⁻¹
